The values below come from US20200095615A1.

For data set [1], the system named is T1, wild type Penicillium oxalicum glucoamylase.
T1 sequence: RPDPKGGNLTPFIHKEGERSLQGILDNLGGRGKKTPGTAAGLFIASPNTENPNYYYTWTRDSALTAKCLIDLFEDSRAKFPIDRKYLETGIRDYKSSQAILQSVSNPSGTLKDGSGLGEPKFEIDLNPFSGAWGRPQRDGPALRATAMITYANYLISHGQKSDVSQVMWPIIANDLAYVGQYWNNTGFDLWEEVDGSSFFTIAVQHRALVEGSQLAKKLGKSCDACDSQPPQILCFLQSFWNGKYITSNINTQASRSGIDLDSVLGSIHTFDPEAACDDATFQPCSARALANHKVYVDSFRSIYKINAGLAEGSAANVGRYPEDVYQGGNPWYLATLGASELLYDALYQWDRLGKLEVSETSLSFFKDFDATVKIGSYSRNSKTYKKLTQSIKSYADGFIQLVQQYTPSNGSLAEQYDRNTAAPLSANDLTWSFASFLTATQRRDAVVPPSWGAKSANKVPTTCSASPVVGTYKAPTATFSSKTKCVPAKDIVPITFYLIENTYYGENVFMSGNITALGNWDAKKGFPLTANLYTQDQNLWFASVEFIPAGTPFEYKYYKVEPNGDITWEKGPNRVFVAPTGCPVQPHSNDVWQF

In data set [2] the target is wild type Penicillium oxalicum glucoamylase (Penicillium oxalicum). As to the kind of experiment: cell-based or functional assay.
For data set [3], the target named is Glucoamylase PE001: variant of the Penicillium oxalicum glucoamylase having a K79V substitution (Penicillium oxalicum). Kind of data set: cell-based or functional assay.

Turning to aorsin, in data set [1], the “cleaved glucoamylase (ca. 60 kDa), SDS-PAGE after protease treatment overnight at 4 °C” value was found to be 60% and the “cleaved glucoamylase (ca. 60 kDa), SDS-PAGE after protease treatment overnight at 32 °C” value came out at 90%.
In data set [2], aorsin (enzyme) registered an intact glucoamylase (ca. 70 kDa), SDS-PAGE after protease treatment overnight at 4 °C of 40% and an intact glucoamylase (ca. 70 kDa), SDS-PAGE after protease treatment overnight at 32 °C of 10%. Besides, in data set [3], the intact glucoamylase (ca. 70 kDa), SDS-PAGE after protease treatment overnight at 4 °C is 100% and the intact glucoamylase (ca. 70 kDa), SDS-PAGE after protease treatment overnight at 32 °C worked out at 100%.
In the case of aspergillopepsin I, in data set [1], the “cleaved glucoamylase (ca. 60 kDa), SDS-PAGE after protease treatment overnight at 32 °C” value worked out at 10%.
In data set [2], aspergillopepsin I (enzyme) yielded an intact glucoamylase (ca. 70 kDa), SDS-PAGE after protease treatment overnight at 4 °C of 100% and an intact glucoamylase (ca. 70 kDa), SDS-PAGE after protease treatment overnight at 32 °C of 90%. For the same substance, in data set [3], the intact glucoamylase (ca. 70 kDa), SDS-PAGE after protease treatment overnight at 4 °C is 100% and the intact glucoamylase (ca. 70 kDa), SDS-PAGE after protease treatment overnight at 32 °C was 100%.
